Patent publication US11787846B2, “EphA2 T-cell epitope agonists and uses therefore” (UNIVERSITY OF PITTSBURGH—OF THE COMMONWEALTH SYSTEM OF …, priority 2003, dated 2023)

Experiments:
SLR24 RCC cells = test: IFN-γ ELISPOT, recognition of SLR24 by anti-EphA2 CTL clone CL.142; format: cell-based, human; details: B61.Ig 30 μg/ml overnight, relative to untreated cells
SLR24 tumors = test: Hu-SCID tumor model; format: in vivo, C.B-17 scid/scid mice
EphA2 [1] = target: T1, EphA2 (Homo sapiens, UniProt P29317); test: EphA2 immunoprecipitation and anti-phosphotyrosine Western blot; format: cell-based; parameters: endogenous in cells; host or cells: PC3 prostate carcinoma cells (A9, A10); SLR24 renal cell carcinoma cells (A10); details: PC3 cells; B61.Ig 30 μg/ml or mAb208 8 μg/ml
Experimental: (§1) Western Blot Analyses. Tumor cells were grown to 80-90% confluency, serum starved overnight, then treated with agonists where indicated. In addition, resected SLR24 lesions were obtained pre- and 24 h post-intratumoral injection with B61-Ig, as outlined below. Tumor samples were analyzed for EphA2 expression via Western blots using the rabbit anti-human EphA2 polyclonal antibody (clone: C-20), Santa Cruz Biotechnology, Inc., Santa Cruz, Calif.). In some experiments, samples were also analyzed for Axl (clone C-20, Santa Cruz Biotechnology, Santa Cruz, Calif.) protein content. Single tumor cell suspensions isolated from confluent tissue culture flasks or from the enzymatic digestion of resected lesions were lysed using 500·mu·l lysis buffer (1% Triton-X, […], 10 mM Tris pH 7.4, 1 mM EDTA, 0.2 mM SOV, 0.5% NP-40) in PBS containing protease inhibitors (Complete, Roche Diagnostic, Mannheim, Germany) for 30 min at 4° C. After centrifugation at 13,500×g for 20 minutes, the supernatant was mixed 1:1 with SDS-PAGE running buffer and proteins separated on 7.5% PAGE gels, prior to electro-blotting onto nitrocellulose membranes (Millipore, Bedford, Mass.). […]

EphA2 [2] = target: T1, EphA2; test: Western blot of EphA2 in resected SLR24 lesions after B61-Ig; format: in vivo, C.B-17 scid/scid mice; parameters: resected SLR24 lesions were obtained pre- and 24 h post-intratumoral injection with B61-Ig; from tissue; host or cells: SLR24 human RCC xenograft lesions resected from C.B-17 scid/scid mice; details: SLR24 tumors resected 24 hours after B61-Ig
Experimental: as §1, with “C.” for “C. After centrifugation at 13,500×g for 20 minutes, the supernatant was mixed 1:1 with SDS-PAGE running buffer and proteins separated on 7.5% PAGE gels, prior to electro-blotting onto nitrocellulose membranes (Millipore, Bedford, Mass.).”
Hu-SCID Tumor Model. […] Animals were evaluated every 3-4 days for tumor size, with tumor-free status noted on day 40 post-tumor inoculation. […]
EphA2 Agonist Treatment Enhances the efficacy of adoptively transferred anti-EphA2 CD8^+ T Cells in a Hu-SCID Tumor Model. […] Animals were evaluated every 3-4 days for tumor size, with tumor-free status noted on day 40 post-tumor inoculation. […]

EphA2 [3] = target: T1, EphA2; test: Western blot of EphA2 protein degradation in tumor cells; format: cell-based; parameters: PC3 (left panel) and SLR24 (right panel) cells were treated for 6 hours with either B61.Ig; endogenous in cells; host or cells: PC3 prostate carcinoma cells (A9, A10); SLR24 renal cell carcinoma cells (A10); details: PC3 and SLR24 cells; 6 hours; B61.Ig 30 μg/ml or mAb208 8 μg/ml
[4] = single therapy: B61-Ig 50 μg intratumoral d18 or 5×10^6 E883 T cells i.v. d19

B1: B61.Ig: chimeric protein consisting of the ligand binding domain of ephrin-A1 fused with the Fc portion of a mouse IgG antibody (protein)
chain: DRHTVFWNSSNPKFRNEDYTIHVQLNDYVDIICPHYEDHSVADAAMEQYILYLVEHEEYQLCQPQSKDQVRWQCNRPSAKHGPEKLSEKFQRFTPFTLGKEFKEGHSYYYISKPIHQHEDRCLRLKVTVSGKITHSPQAHDNPQEKRLAADDPEVRVLHSIGHS
modifications: left off: a dimerising Fc or GST
Question: B1 was tested. Which “CL.142 recognition of SLR24 (IFN-γ ELISPOT)” value (SLR24 RCC cells) did it give?
Answer: significantly enhanced

Question: What about the “Benefit vs. B61-Ig treatment alone” value (SLR24 tumors; B61-Ig combined with CD8+ T cells specific for influenza matrix58-66, data not shown) of the same molecule?
Answer: no enhanced benefit

Question: What about the “Resolution of disease (treated mice)” value (SLR24 tumors; combination: B61-Ig 50 μg intratumoral d18 plus 5×10^6 E883 anti-EphA2 CD8+ T cells i.v. d19, tumor-free status day 40) of the same molecule?
Answer: 5/5

Question: What about the Animals cured (SLR24 tumors; [4]) of the same molecule?
Answer: no animals were cured

Question: What about the SLR24 tumor growth (SLR24 tumors; [4]) of the same molecule?
Answer: delayed growth

Question: What about the “EphA2 phosphorylation (phosphotyrosine content)” value (EphA2 [1]) of the same molecule?
Answer: Induce EphA2 Phosphorylation

Question: What about the “EphA2 processing/degradation in situ” value (EphA2 [2]) of the same molecule?
Answer: promoted EphA2 processing in situ

Question: And the EphA2 protein degradation (EphA2 [3])?
Answer: Degradation
